# Experimental data from PMC12444478, “Structural insights into the substrate transport mechanism of the amino acid transporter complex” (The Journal of Biological Chemistry, 2025).
# Biological target: T1, 4F2hc (CD98hc, SLC3A2), isoform b (human, UniProt P08195-5 1-631)
# T1 construct: Purified as a complex with m1 (LAT1); also called heavy chain; source: HEK293F, coexpressed with LAT1, purified (anti-FLAG resin, nickel-NTA, size-exclusion chromatography in GDN)
# T1 sequence (looked up): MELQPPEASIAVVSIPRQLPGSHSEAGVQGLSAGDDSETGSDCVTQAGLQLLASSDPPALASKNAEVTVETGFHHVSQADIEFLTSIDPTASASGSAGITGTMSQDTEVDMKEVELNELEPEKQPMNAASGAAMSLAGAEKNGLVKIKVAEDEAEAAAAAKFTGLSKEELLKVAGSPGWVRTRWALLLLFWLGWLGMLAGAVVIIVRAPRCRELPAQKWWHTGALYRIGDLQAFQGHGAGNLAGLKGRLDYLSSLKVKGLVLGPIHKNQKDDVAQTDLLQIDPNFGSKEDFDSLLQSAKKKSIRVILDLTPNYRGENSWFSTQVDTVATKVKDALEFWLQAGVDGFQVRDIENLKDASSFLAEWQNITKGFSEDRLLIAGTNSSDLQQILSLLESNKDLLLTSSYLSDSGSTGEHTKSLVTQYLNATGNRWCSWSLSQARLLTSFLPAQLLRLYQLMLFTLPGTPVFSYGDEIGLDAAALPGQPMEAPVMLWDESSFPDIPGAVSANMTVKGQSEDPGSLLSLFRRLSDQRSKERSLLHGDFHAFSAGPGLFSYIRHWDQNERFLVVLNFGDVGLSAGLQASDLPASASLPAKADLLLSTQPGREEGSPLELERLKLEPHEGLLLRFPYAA
# Assay: cryo-EM structure; LAT1-4F2hc coexpressed and purified as a complex in 25 mM Hepes pH 7.5, 150 mM NaCl, 0.01% GDN; incubated with 10 mM Leu, 1 mM Trp, 1 mM L-DOPA or 1 mM Tyr for 2 h; four structures
# Details: both partners purified
binder,measurement,value
"L-type amino acid transporter 1 (LAT1, SLC7A5) (natural protein, LAT1 (SLC7A5), human, full-length cDNA NM_003486.7 in pCAG vector; Purified as a complex with m2 (4F2hc); also called light chain; source: HEK293F, coexpressed with 4F2hc, purified (anti-FLAG resin, nickel-NTA, size-exclusion chromatography in GDN)) not shown",binding result,binds
